Columns and labels:
purified protein [1] = substrate: Nc1c(N=Nc2ccc(S(=O)(=O)CCOS(=O)(=O)O)cc2)c(S(=O)(=O)O)cc2cc(S(=O)(=O)O)c(N=Nc3ccc(S(=O)(=O)CCOS(=O)(=O)O)cc3)c(O)c12; test: purified protein; assay type: biochemical, Irpex lacteus; conditions: 0.4 mM H2O2, pH 3.0, 25 °C
purified protein [2] = substrate: CCn1c(=NN=c2sc3cc(S(=O)(=O)O)ccc3n2CC)sc2cc(S(=O)(=O)O)ccc21; test: purified protein; assay type: biochemical, Irpex lacteus; conditions: 0.4 mM H2O2, pH 3.0, 25 °C

B1: IrlacDyP (recombinant Irpex lacteus DyP) (Irpex lacteus) (protein)
chain: SAGNDSLPFENIQGDILVGMKKDKEKFVFFHINNATTFKSFLKTYAPANITSVQTIIGPASGQPQAFVNLAFSHTGFGALGVADDLQDTAFTAGQFADAPSFGDDTSTWEEAFKGTNVDGVFLIGSDDVTTTNQYRDDLKAKLGDAWTVLLDLDSAARPGAEKGHEHFGYLDGISNPTIPGFGTPFPGQAVVDSGVIFAGRTNDPVTNRPSWALDGSFLVFRKLKQLVPEFHKWTLDNALQNQAGNLTVEEGALLLGSRMFGRWNSGAPIDLTPDVDDPTLGSDPQRNNDFNYIHPGEDLTTDETRCPFTAHVRKANPRDLEAQGLIPDLFHAIRAGTPYGPEVTDAESNSNTTSIDRGLAFVEYQSVISNGFRFQQLNWANNANFPFNKSEPLGLDPVIGQGTRQTFGLDPRNASDSLTIPQIIISNGGEYFFSPSITALVEHFGA
notes: mature form, signal peptide removed, 447 residues; about 50 kDa, non-glycosylated
Q: Which results are given for B1?
A: Km (purified protein [1]): 11.9 ± 2.1 µM; kcat/Km (purified protein [1]): 6.5e+06 ± 1e+06 M⁻¹ s⁻¹; Km (purified protein [2]): 1.5 ± 0.2 µM; kcat (purified protein [2]): 49.8 ± 1.3 s⁻¹; kcat/Km (purified protein [2]): 3.3e+07 ± 4e+06 M⁻¹ s⁻¹
